In the supplement of paper PMC10567573:

B1: DYRK1B (parent)
chain: KKVLNHGYDDDNHDYIVRSGERWL
B2: CCDC6 (parent)
chain: FTPPTSLTRAGMSYYNSPGLHVQH

Variants of: B1
Assay: protein stability index of a GFP-peptide fusion (GPS, HEK-293T) (PSI 1-6); higher = more stable
Settings: c terminus: a fixed tail appended
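Also: lentivirally expressed fusions sorted by FACS into six bins by GFP to DsRed ratio, PSI derived from sequencing read proportions per bin multiplied by bin number.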

Protein stability index of substitutions, site by site:
R22: V 2.6; W 2.06; Y 2.52
W23: A 3.81; C 3.8; D 4.73; E 4.46; F 3.62; G 4.07; H 3.99; I 3.9; K 4.3; L 3.88; M 3.93; N 4.56; P 3.7; Q 4.2; R 3.6; S 4.47; T 4.3; V 4.31; Y 3.64
L24: A 3.37; C 3.46; D 4.08; E 4.07; F 2.81; G 3.81; H 3.57; I 3.33; K 3.85; M 3.49; N 3.75; P 3.82; Q 3.69; R 3.55; S 3.58; T 3.51; V 3.8; W 2.85; Y 3.03

Variants of: B2
Assay: as above
Settings: c terminus: a fixed tail appended

Protein stability index: each site, then its substitutions
F1: A 2.65; C 1.52; D 3.56; E 2.85; G 2.54; H 2.9; I 2.46; K 2.49; L 1.89; M 3.01; N 2.88; P 2.82; Q 2.64; R 2.19; S 2.01; T 2.94; V 2.41; W 2.14; Y 1.91
T2: A 1.84; C 1.91; D 2.1; E 2.83; F 1.48; G 2.47; H 1.85; I 2.6; K 1.79; L 1.87; M 2.6; N 1.55; P 2.26; Q 1.91; R 2.17; S 1.5; V 1.96; W 2.67; Y 1.69
P3: A 1.73; C 2; D 2.1; E 2.16; F 1.95; G 2.07; H 1.79; I 1.63; K 2.78; L 1.98; M 1.87; N 2.02; Q 2.32; R 2.14; S 2.1; T 2.35; V 2.08; W 1.21; Y 1.93
P4: A 1.15; C 2.3; D 2.23; E 1.99; F 1.97; H 2.19; I 1.51; L 4.29; M 2.04; N 3.07; Q 2.48; R 1.83; S 1.42; T 2.27; V 2.5; Y 3.21
T5: A 2; C 1.74; D 1.89; E 2.29; F 1.69; G 2.07; H 1.72; I 1.84; K 1.54; L 2.29; M 2.42; N 1.81; P 1.68; Q 1.53; R 1.96; S 1.84; V 2.01; Y 1.01
S6: A 1.51; C 2.1; D 1.79; E 1.91; F 2.98; G 2; H 1.66; I 2.2; K 1.51; L 2.45; M 1.65; N 1.84; Q 2.21; R 2.47; T 1.73; V 2.1; W 2.27; Y 1.84
L7: A 2.21; C 2.61; D 1.62; E 2.12; F 2.4; G 1.66; H 2.28; I 1.41; K 2.59; M 2.29; N 1.7; P 2.33; Q 2.38; R 2.04; S 1.7; T 1.89; V 1.56; W 2.33; Y 2.39
T8: A 1.76; C 2.73; D 1.82; E 1.41; F 2.56; G 2.06; H 1.56; I 2.14; K 1.46; L 1.78; M 1.92; N 2.06; P 2.46; Q 2.53; S 1.83; V 1.85; W 1.78; Y 1.5
R9: A 2.1; C 2.58; D 2.77; E 2.63; F 2.94; G 1.59; H 1.27; I 1.45; K 1.71; L 2.82; M 1.81; N 1.65; Q 2.54; S 1.79; T 1.47; V 1.58; Y 3.32
A10: D 1.37; E 2.15; F 2.33; H 2.09; I 1.75; K 2.01; L 1.2; M 1.9; N 2.23; P 1.91; Q 2; R 2.22; S 2.06; T 1.68; V 1.98; W 3.03; Y 2.72
G11: A 1.96; C 1.71; D 1.75; E 1.84; F 1.68; H 1.69; I 1.49; K 1.19; L 1.97; M 1.91; N 2.46; Q 1.98; R 1.68; S 2.23; T 2.17; V 1.56; Y 2.12
M12: A 1.84; C 1.68; D 2.19; E 2.29; F 1.58; G 1.57; H 2.33; I 2.02; K 2.2; L 2.21; N 2.12; P 2.56; Q 1.73; R 1.79; S 2; T 2.16; V 1.99; W 2.4; Y 1.71
S13: A 2.18; C 1.55; D 1.43; E 1.9; F 2.54; G 1.39; H 1.67; I 1.69; K 2.11; L 1.73; M 1.34; N 1.77; P 1.96; R 1.87; T 1.39; V 1.97; W 1.3; Y 1.86
Y14: A 2.09; C 1.93; D 3.09; E 2.73; F 1.94; G 2.31; H 2.42; I 1.64; K 2.66; L 1.44; M 1.7; N 2.6; P 1.88; Q 2.65; R 3.18; S 2.46; T 2.33; V 1.32; W 1.67
Y15: A 2.24; C 1.99; D 2.58; E 2.35; F 2.5; G 2.37; H 2.11; I 2.18; K 2.33; L 2.22; M 1.92; N 2.23; P 2.57; Q 2.45; R 2.33; S 2.21; T 2.51; V 2.89; W 3.27
N16: A 2.42; C 2.06; D 2.33; E 1.62; F 1.33; G 1.53; H 2.12; I 1.98; K 1.95; L 2.09; M 1.89; P 1.89; Q 1.94; R 1.42; S 1.65; T 2.17; V 2.32; Y 1.77
S17: A 2.94; C 1.24; D 2.09
